The target of test [1] is T1, rHuman CD44/Fc Chimera, CF (R&D Systems Cat#3660-CD) (human, UniProt P16070 21-220).
T1 construct: Bought Fc chimera; Fc part of the bought chimera not given
Kind of test: MSD ECL titration, Fab 0.1 nM, blank 201.

Test [2] addresses T2, rHuman IGF-1 sR (insulin-like growth factor-1 soluble receptor), CF (R&D Systems Cat#391-GR) (human, UniProt P08069 31-932).
T2 construct: Bought soluble receptor; also called IGF-R1
Kind of test: MSD ECL titration, Fab 0.1 nM, blank 201.

Test [3] concerns the target T3, rHuman P-Cadherin/Fc Chimera, CF (R&D Systems Cat#861-PC) (human, UniProt P22223 108-654).
T3 construct: Bought Fc chimera; Fc part of the bought chimera not given
Kind of test: MSD ECL titration, Fab 0.1 nM, blank 201.

The target of test [4] is T4, rHuman Erythropoietin R/Fc Chimera, CF (R&D Systems Cat#963-ER) (human, UniProt P19235 25-250).
T4 construct: Bought Fc chimera; also called EPO R/Fc; EPOR; Fc part of the bought chimera not given
T4 sequence: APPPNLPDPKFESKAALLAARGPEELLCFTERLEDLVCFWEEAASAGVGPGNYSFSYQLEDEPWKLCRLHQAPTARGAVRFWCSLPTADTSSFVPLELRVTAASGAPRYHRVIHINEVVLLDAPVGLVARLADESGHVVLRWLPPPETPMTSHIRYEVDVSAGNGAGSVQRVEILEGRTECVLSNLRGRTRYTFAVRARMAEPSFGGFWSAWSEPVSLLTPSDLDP
As to the kind of experiment: MSD ECL titration, Fab 0.1 nM, blank 201.

The target in test [5] is T5, rHuman EGF R/Fc Chimera, CF (R&D Systems Cat#344-ER) (human, UniProt P00533 25-645).
T5 construct: Bought Fc chimera; Fc part of the bought chimera not given
Kind of test: MSD ECL titration, Fab 0.1 nM, blank 201.

Test [6] has as its target T6, rHuman HGF R/c-MET/Fc Chimera, CF (R&D Systems Cat#358-MT/CF) (human, UniProt P08581 25-932).
T6 construct: Bought Fc chimera; also called HGF R/Fc; Fc part of the bought chimera not given
As to the kind of experiment: MSD ECL titration, Fab 0.1 nM, blank 201.

The target in test [7] is T7, rHuman Notch-1/Fc Chimera, CF (R&D Systems Cat#3647-TK) (human, UniProt P46531 19-526).
T7 construct: Bought Fc chimera; Fc part of the bought chimera not given
Kind of test: MSD ECL titration, Fab 595.8 nM, blank 285.

The target in test [8] is T8, Recombinant Human DLL4 (R&D Systems Cat#1506-D4/CF) (human, UniProt Q9NR61 27-524).
T8 construct: Bought recombinant protein; also called rHuman DLL4; delta-like protein 4
Kind of test: MSD ECL titration, Fab 595.8 nM, blank 285.

Test [9] concerns the target T9, rHuman ErbB2/Fc Chimera, CF (R&D Systems Cat#1129-ER) (human, UniProt P04626 23-652).
T9 construct: Bought Fc chimera; also called HER2/neu; Fc part of the bought chimera not given
As to the kind of experiment: MSD ECL titration, Fab 595.8 nM, blank 285.

The target in test [10] is T5, rHuman EGF R/Fc Chimera, CF (R&D …). Kind of test: MSD ECL titration, Fab 595.8 nM, blank 285.
Test [11] addresses T6, rHuman HGF R/c-MET/Fc Chimera, CF (R&D …). As to the kind of experiment: MSD ECL titration, Fab 595.8 nM, blank 285.
The target in test [12] is T10, rHuman CD44/Fc Chimera, CF (R&D Systems Cat#3660-CD) (human, UniProt P16070 21-220).
T10 construct: Bought Fc chimera; Fc part of the bought chimera not given
As to the kind of experiment: ECL (MSD Multi-Spot) binding, antigen spotted on plate; Fab 5 nM.

Test [13] addresses T11, rHuman IGF-1 sR, CF (R&D Systems Cat#391-GR) (human, UniProt P08069 31-932).
T11 construct: Bought soluble receptor; also called insulin-like growth factor-1 soluble receptor; IGF-R1
Described as above.

Test [14] concerns the target T12, rHuman P-Cadherin/Fc Chimera, CF (R&D Systems Cat#861-PC) (human, UniProt P22223 108-654).
T12 construct: Bought Fc chimera; Fc part of the bought chimera not given
The test is described as above.

Test [15] concerns the target T13, rHuman Erythropoietin R/Fc Chimera, CF (R&D Systems Cat#963-ER) (human, UniProt P19235 25-250).
T13 construct: Bought Fc chimera; also called EPO R/Fc; erythropoietin receptor; Fc part of the bought chimera not given
T13 sequence: T4 sequence
Described as above.

In test [16] the target is T14, Recombinant Human DLL4 (R&D Systems Cat#1506-D4/CF) (human, UniProt Q9NR61 27-524).
T14 construct: Bought recombinant protein; also called delta-like protein 4
The test is described as above.

Test [17] concerns the target T15, rHuman ErbB2/Fc Chimera, CF (R&D Systems Cat#1129-ER) (human, UniProt P04626 23-652).
T15 construct: Bought Fc chimera; also called human epidermal growth factor 2 receptor; HER2/neu; Fc part of the bought chimera not given
The test is described as above.

The target of test [18] is T16, rHuman EGF R/Fc Chimera, CF (R&D Systems Cat#344-ER) (human, UniProt P00533 25-645).
T16 construct: Bought Fc chimera; also called epidermal growth factor receptor; Fc part of the bought chimera not given
Described as above.

The target of test [19] is T17, rHuman HGF R/c-MET/Fc Chimera, CF (R&D Systems Cat#358-MT/CF) (human, UniProt P08581 25-932).
T17 construct: Bought Fc chimera; also called HGF R/Fc; hepatocyte growth factor receptor; Fc part of the bought chimera not given
The description is as above.

The target of test [20] is T18, rHuman Notch-1/Fc Chimera, CF (R&D Systems Cat#3647-TK) (human, UniProt P46531 19-526).
T18 construct: Bought Fc chimera; Fc part of the bought chimera not given
Described as above.

Substitutions are numbered along the chain they refer to.
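Also: blank spot per well as comparator with Hit at signal to blank ratio of 4 or more.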

B1: Fab VH1-46_IGHD6-6*01_IGHJ1*01 & L6_IGKJ1*01 (Fab, V domains shown)
VH: QVQLVQSGAEVKKPGASVKVSCKASGYTFTSYYMHWVRQAPGQGLEWMGIINPSGGSTSYAQKFQGRVTMTRDTSTSTVYMELSSLRSEDTAVYYCAREEYSSSSAEYFQHWGQGTLVTVSS
VL: not shown
notes: Expressed in E. coli as Fab: heavy chain with CH1 plus Flag and His tags from Plasmid A, kappa light chain constant region from Plasmid C; also called Fab No. 1
Consider B1, for which the ECL signal in [1] stood at 323; in test [2], 241; in test [3], 235; in test [4], 373; in test [5] it was 311; in test [6], 286. Besides, the ECL signal is 306 in [7]; 17200 in test [8]; 321 in [9]; 403 in test [10]; 353 in [11].

B2: Fab VH1-46_IGHD6-6*01_IGHJ1*01_S102A_S103P_S104F_H111Y & L6_IGKJ1*01 (Fab, V domains shown)
VH: B1 VH with S102A, S103P, S104F, H111Y
VL: not shown
notes: Fab made in E. coli; The heavy chain also carries the CH1 with Flag and His tags of Plasmid A, and the light chain the kappa constant region of Plasmid C
As to B2, the ECL signal in test [12] came to 413; in [13], 320; in test [14], 437; in test [15] it was 377; in test [16] it was 84900; in [17] it was 315. The values for the ECL signal in test [18], in [19] and in test [20] were 311, 323 and 383, respectively.

The values are drawn from patent US20120058906A1 (published 2012).
